# Experimental data: IntAct's records for PubMed 23481255
# B1: ADP-ribose glycohydrolase OARD1 (Homo sapiens), Q9Y530 (parent)
# chain: MASSLNEDPEGSRITYVKGDLFACPKTDSLAHCISEDCRMGAGIAVLFKKKFGGVQELLNQQKKSGEVAVLKRDGRYIYYLITKKRASHKPTYENLQKSLEAMKSHCLKNGVTDLSMPRIGCGLDRLQWENVSAMIEEVFEATDIKITVYTL
# B2: ADP-ribose glycohydrolase OARD1 (Homo sapiens), Q9Y530 (parent)
# chain: B1 chain
# partner: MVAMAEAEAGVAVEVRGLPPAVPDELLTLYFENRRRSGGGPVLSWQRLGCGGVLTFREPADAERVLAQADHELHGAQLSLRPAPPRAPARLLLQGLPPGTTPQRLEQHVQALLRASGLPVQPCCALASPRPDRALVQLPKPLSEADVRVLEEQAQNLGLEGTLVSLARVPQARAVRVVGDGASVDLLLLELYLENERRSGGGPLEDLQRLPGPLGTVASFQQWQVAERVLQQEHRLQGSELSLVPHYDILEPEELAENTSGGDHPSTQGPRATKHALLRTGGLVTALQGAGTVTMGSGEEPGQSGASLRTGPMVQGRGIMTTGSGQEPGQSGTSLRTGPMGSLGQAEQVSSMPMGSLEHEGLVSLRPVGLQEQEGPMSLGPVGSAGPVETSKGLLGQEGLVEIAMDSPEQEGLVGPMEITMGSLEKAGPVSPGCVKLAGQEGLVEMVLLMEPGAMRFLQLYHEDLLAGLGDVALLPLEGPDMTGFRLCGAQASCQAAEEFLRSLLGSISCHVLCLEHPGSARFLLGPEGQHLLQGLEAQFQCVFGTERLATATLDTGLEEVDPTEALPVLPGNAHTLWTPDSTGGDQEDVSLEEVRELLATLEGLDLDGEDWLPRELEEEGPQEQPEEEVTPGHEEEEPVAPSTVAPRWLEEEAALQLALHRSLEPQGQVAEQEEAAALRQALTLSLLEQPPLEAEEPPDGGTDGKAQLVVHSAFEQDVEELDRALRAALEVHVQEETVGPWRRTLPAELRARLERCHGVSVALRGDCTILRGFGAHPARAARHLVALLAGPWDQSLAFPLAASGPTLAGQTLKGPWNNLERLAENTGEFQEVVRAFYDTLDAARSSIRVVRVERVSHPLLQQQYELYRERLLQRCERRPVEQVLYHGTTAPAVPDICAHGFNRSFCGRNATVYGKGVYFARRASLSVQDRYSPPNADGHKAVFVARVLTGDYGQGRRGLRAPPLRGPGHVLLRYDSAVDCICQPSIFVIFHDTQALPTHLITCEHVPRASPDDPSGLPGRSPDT
# Variants of: B1
# Settings: with parp1_human PARP1, P09874
# parp1_human PARP1, P09874, sequence (P09874 whole entry): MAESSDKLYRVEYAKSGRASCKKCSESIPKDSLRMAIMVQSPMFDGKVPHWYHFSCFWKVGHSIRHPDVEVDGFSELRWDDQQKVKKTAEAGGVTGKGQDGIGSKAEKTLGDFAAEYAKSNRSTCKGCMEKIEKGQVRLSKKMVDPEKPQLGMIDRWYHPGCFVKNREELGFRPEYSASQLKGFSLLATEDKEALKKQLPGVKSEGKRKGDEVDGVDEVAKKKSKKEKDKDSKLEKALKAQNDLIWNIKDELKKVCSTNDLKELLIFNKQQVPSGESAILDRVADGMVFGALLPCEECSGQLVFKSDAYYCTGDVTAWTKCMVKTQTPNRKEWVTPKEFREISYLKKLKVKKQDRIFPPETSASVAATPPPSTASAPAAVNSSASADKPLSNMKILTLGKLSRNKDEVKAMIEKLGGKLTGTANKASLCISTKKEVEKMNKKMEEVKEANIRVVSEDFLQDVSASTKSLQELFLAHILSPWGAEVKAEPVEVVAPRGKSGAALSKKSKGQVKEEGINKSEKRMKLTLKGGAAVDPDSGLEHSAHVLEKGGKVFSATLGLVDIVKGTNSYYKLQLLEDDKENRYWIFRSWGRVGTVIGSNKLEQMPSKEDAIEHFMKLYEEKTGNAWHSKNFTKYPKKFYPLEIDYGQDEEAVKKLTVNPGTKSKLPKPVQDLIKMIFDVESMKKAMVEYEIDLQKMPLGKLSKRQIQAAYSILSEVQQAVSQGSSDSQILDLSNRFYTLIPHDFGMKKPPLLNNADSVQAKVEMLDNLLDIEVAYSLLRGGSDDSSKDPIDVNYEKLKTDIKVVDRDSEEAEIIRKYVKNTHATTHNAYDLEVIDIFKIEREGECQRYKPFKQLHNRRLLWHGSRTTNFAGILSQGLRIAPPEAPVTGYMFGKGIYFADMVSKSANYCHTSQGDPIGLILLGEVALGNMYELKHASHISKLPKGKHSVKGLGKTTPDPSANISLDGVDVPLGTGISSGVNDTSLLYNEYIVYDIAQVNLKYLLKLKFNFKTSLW
row,Variant,effect of a mutation on the interaction
1,D125A,disrupting interaction

# Variants of: B1
# Settings: with parp1_human PARP1, P09874
# Remark: another data set of the same source
row,Variant,effect of a mutation on the interaction
1,D125A,increasing interaction

# Variants of: B1
# Settings: with parp1_human PARP1, P09874
# Remark: another data set of the same source
row,Variant,effect of a mutation on the interaction
1,K84A,disrupting interaction

# Variants of: B1
# Settings: with parp1_human PARP1, P09874
# Remark: another data set of the same source
row,Variant,effect of a mutation on the interaction
1,K84R,disrupting interaction

# Variants of: B1
# Settings: with parp1_human PARP1, P09874
# Remark: another data set of the same source
row,Variant,effect of a mutation on the interaction
1,G123E,disrupting interaction

# Variants of: B2
# Settings: with par10_human PARP10, Q53GL7
row,Variant,effect of a mutation on the interaction
1,K84A,disrupting interaction

# Variants of: B2
# Settings: with par10_human PARP10, Q53GL7
# Remark: another data set of the same source
row,Variant,effect of a mutation on the interaction
1,D125A,disrupting interaction
